Tests used:
[1] = molecular target: human toll-like receptor 5 (TLR5) (human) (UniProt O60602)
[2] = molecular target: human toll-like receptor 5 (TLR5) (human) (UniProt O60602); remark: listed apart in the source
[3] = molecular target: human toll-like receptor 5 (TLR5) (human) (UniProt O60602); remark: listed apart in the source
[4] = molecular target: human toll-like receptor 5 (TLR5) (human) (UniProt O60602); remark: listed apart in the source

Sequence of UniProt O60602 (O60602 21-858): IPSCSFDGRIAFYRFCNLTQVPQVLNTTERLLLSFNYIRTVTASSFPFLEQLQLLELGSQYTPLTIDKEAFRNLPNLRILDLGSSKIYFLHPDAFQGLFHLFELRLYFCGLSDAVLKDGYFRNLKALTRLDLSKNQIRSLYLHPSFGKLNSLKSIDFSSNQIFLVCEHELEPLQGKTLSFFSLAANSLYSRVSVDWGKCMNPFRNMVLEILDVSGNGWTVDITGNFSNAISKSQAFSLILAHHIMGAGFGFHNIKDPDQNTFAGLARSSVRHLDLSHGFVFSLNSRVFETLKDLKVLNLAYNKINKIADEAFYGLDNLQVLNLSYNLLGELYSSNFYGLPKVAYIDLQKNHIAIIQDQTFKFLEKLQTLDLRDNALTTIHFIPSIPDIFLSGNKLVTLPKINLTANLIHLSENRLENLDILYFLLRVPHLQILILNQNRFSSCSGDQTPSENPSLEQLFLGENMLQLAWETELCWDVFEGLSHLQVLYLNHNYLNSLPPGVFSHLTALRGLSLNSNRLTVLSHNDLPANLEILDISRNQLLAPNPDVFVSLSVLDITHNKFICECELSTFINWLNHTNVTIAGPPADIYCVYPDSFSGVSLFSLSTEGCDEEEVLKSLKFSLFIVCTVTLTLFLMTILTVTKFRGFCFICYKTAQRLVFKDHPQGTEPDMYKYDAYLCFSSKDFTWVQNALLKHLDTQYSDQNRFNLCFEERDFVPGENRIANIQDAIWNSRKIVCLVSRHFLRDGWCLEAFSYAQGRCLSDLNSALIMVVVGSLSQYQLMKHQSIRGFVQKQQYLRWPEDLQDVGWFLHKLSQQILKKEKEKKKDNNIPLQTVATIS

flagellin (FliC) from S. typhimurium SL1344, full-length (from UniProt P06179 1-495) (natural protein)
EC50 of bioactivity (SEAP reporter in HEK-Blue-hTLR5 cells) [1]: 1.3 pM

flagellin mutant SS1 (L12-N484 replaced with cysteine) (from UniProt P06179 1-495) (natural protein)
EC50 of bioactivity (cell-based TLR5 stimulation assay); decreased against native flagellin [2]: < 10 pM

flagellin mutant SS2 (Q22-Q473 replaced with cysteine) (from UniProt P06179 1-495) (natural protein)
EC50 of bioactivity (cell-based TLR5 stimulation assay); decreased against native flagellin [2]: < 10 pM

flagellin mutant SS3 (Q22-T477 replaced with cysteine) (from UniProt P06179 1-495) (natural protein)
EC50 of bioactivity (cell-based TLR5 stimulation assay); decreased against native flagellin [2]: < 10 pM

flagellin mutant SS4 (G35-S457 replaced with cysteine) (from UniProt P06179 1-495) (natural protein)
EC50 of bioactivity (cell-based TLR5 stimulation assay); decreased against native flagellin [2]: < 10 pM

flagellin mutant SS5 (L36-D456 replaced with cysteine) (from UniProt P06179 1-495) (natural protein)
EC50 of bioactivity (cell-based TLR5 stimulation assay); decreased against native flagellin [2]: < 10 pM

flagellin mutant SS6 (A51-R451 replaced with cysteine) (from UniProt P06179 1-495) (natural protein)
EC50 of bioactivity (cell-based TLR5 stimulation assay); decreased against native flagellin [2]: < 10 pM

flagellin without the C-terminal D0 domain (S452-R495) (from UniProt P06179 1-451) (domain or fragment)
EC50 of bioactivity (SEAP reporter in HEK-Blue-hTLR5 cells) [1]: 80 pM

flagellin-HBc VLP conjugate with 2 flagellins on a VLP (1:40 reactant ratio) (from UniProt P06179 1-495) (complex)
potency of TLR5 stimulation, based on flagellin concentration (SEAP reporter in HEK-Blue-hTLR5 cells) [3]: 1 pM | bioactivity against free flagellin (SEAP reporter in HEK-Blue-hTLR5 cells) [4]: 7 fold

flagellin-HBc VLP conjugate with 10 flagellins on a VLP (1:10 reactant ratio) (from UniProt P06179 1-495) (complex)
bioactivity against free flagellin (SEAP reporter in HEK-Blue-hTLR5 cells) [4]: 7 fold

flagellin-HBc VLP conjugate with 33 flagellins on a VLP (1:2 reactant ratio) (from UniProt P06179 1-495) (complex)
potency of TLR5 stimulation, based on flagellin concentration (SEAP reporter in HEK-Blue-hTLR5 cells) [3]: 1 pM | bioactivity against free flagellin (SEAP reporter in HEK-Blue-hTLR5 cells) [4]: 7 fold

soluble SS5 HIII flagellin (L36C-D456C; HPG1+A2I+M310I+M466I) (from UniProt P06179 1-495) (natural protein)
minimum flagellin concentration stimulating the TLR5 receptors (SEAP reporter in HEK-Blue-hTLR5 cells) [4]: 0.2 pM

From publication PMC4709591
